Assay [1] has as its target T1, CD55 (UniProt P08174 35-353, limits assumed).
T1 construct: whole, on cells; also called CD55 on Rituximab resistant Raji cells (RRCL)
T1 sequence (looked up): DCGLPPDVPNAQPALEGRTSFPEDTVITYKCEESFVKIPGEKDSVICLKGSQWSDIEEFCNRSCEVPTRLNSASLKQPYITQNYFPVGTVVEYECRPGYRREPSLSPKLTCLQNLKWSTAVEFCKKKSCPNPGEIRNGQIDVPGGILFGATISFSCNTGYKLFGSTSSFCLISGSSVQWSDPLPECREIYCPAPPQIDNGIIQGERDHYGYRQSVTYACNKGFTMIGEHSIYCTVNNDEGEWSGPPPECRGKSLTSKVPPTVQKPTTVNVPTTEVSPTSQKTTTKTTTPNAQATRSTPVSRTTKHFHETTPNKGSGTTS
Briefly: binding at 5 µg/ml, the baseline itself; format not stated.

The target of another assay is PD-L1 (UniProt Q9NZQ7 19-290, limits assumed). Nature of the assay: flow cytometry binding to MDA231 cells, Cy3 goat anti-human IgG detection. As to the method: (§1) a) MDA231 cells are prepared in media at a concentration of 1×10⁶ cells/mL. [0411] b) Dilute antibody sample to an appropriate concentration. [0412] c) Transfer 50 μL, of cells into each well of 96 well V-bottom plate. [0413] d) Transfer 50 μL, of antibodies into wells of 96 well V-bottom plate. [0414] e) Incubate cell mixture for 60 min at room temperature. [0415] f) Spin cells down and wash twice with FACS buffer. [0416] g) Re-suspend cells in 100 μL, FACS buffer containing Cy3 conjugated goat anti-human (GAH) IgG (1:500) in each well. [0417] h) Incubate at room temperature for 30 min, and wash with FACS buffer×2.
Chain of PD-L1 (Q9NZQ7 19-290 limits assumed): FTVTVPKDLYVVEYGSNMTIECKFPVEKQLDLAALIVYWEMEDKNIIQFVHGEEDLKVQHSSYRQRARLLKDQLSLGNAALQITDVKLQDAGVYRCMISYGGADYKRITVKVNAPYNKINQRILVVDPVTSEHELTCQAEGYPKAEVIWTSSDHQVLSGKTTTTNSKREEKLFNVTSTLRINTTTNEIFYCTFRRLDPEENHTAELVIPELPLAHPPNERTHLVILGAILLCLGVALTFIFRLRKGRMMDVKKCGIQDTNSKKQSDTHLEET

The target in assay [2] is T1, CD55. The description is as above. How it is done:
as §1

Where a chain is given by its changes, count along the chain named.

B1: parental anti-CD55 antibody (CD55 wt), monoclonal antibody having CD55VH (SEQ ID NO: 14 without any mutations) and the VL (SEQ ID NO: 15) (antibody, V domains shown)
VH: QVKLQESGGGLVQPGGSLKLSCAASGFTFSGYGMSWIRQTPDKRLEWVATINSGGSYTYYSDSVKGRFTISRDNVKNTLYLQMSSLKSEDTAMYYCARRNGTLYYYLMDYWGRGTLVTVSS
VL: QSVLTQPPSASGSPGQSVTISCTGTSSDVGGYNYVSWYQQHPGKAPKFMIYDVSKRPSGVSNRFSGSKSGNTASLTISGVQAEDEADYYCSSYTSASTVIFGGGTKLTVL
notes: Variable domains derived from a CD55 scFv; also called CD55VH + VL; CD55 parental Ab
On to B1, for which the “Function remaining percentage (5 µg/ml)” value with CD55 [1] worked out at 100%.

B2: Anti-PD-L1 homodimer IgG (PD-L1 v1) containing the designed VH sequence (SEQ ID NO: 4) and the common VL sequence (SEQ ID NO: 6) (antibody, V domains shown)
VH: EVQLLESGGGLVEPGGSLRLSCAASGFTFSSYIMMWVRQAPGKGLEWVSSIYPSGGITFYADTVKGRFTISRDNSKNTLYLQMNSLRAEDTAVYYCARIKLGTVTTVDYWGEGTLVTVSS
VL: QSALTQPASVSGSPGQSITISCTGTSSDVGGYNYVSWYQQHPGKAPKLMIYDVSKRPSGVSNRFSGSKSGNTASLTISGLQAEDEADYYCSSYTSASTRIFGGGTKVTVLR
notes: Homodimer IgG; also called PDL1 homodimer version 1
Consider B2, for which the binding result with PD-L1 is “binds”.

B3: Anti-CD55 homodimer IgG (CD55 v1) containing the designed VH sequence (SEQ ID NO: 5) and the common VL sequence (SEQ ID NO: 6) (antibody, V domains shown)
VH: B1 VH with Q13K, D42G
VL: B2 VL
notes: Homodimer IgG; also called CD55 homodimer version 1
As to B3, the binding result with CD55 [2] is listed as “binds”.
